Results published in patent US8178581B2, “Production of peracids using an enzyme having perhydrolysis activity” (E. I. du Pont de Nemours and Company, priority 2005, dated 2012).

B1: Novozymes Lipolase 100 L type EX: commercial lipase, source Thermomyces lanuginosus (Novozymes) (protein, UniProt O59952 23-291, looked up)
Lipase: EVSQDLFNQFNLFAQYSAAAYCGKNNDAPAGTNITCTGNACPEVEKADATFLYSFEDSGVGDVTGFLALDNTNKLIVLSFRGSRSIENWIGNLNFDLKEINDICSGCRGHDGFTSSWRSVADTLRQKVEDAVREHPDYRVVFTGHSLGGALATVAGADLRGNGYDIDVFSYGAPRVGNRAFAEFLTVQTGGTLYRITHTNDIVPRLPPREFGYSHSSPEYWIKSGTLVPVTRNDIVKIEGIDATGGNNQPNIPDIPAHLWYFGLIGTCL
B2: Novozymes Lipozyme TL 100 L: commercial lipase, source Thermomyces lanuginosus (Novozymes) (protein, UniProt O59952 23-291, looked up)
Lipase: B1 Lipase

Test: Perhydrolysis of triacetin with hydrogen peroxide; peracetic acid measured by HPLC method of Karst et al.
Assay type: biochemical
Conditions: Table 14: triacetin 250 mM, H2O2 1.0 M, pH 6.5, 25° C., 50 μg/mL of commercial lipase
Procedure: Determination of the concentration of peracetic acid in the reaction mixture was performed according to the method described by Karst et al. Aliquots (0.250 mL) of the reaction mixture were removed at 10 min and 30 min and filtered using an Ultrafree® MC-filter unit (30,000 Normal Molecular Weight Limit (NMWL), Millipore cat #UFC3LKT 00) by centrifugation for 2 min at 12,000 rpm; removal of the protein component of the aliquot by filtration terminated the reaction. An aliquot (0.100 mL) of the resulting filtrate was transferred to 1.5-mL screw cap HPLC vial (Agilent Technologies, Palo Alto, Calif.; #5182-0715) containing 0.300 mL of deionized water, then 0.100 mL of 20 mM MTS (methyl-p-tolyl-sulfide) in acetonitrile was added, the vials capped, and the contents briefly mixed prior to a 10 min incubation at ca. 25° C. in the absence of light. To each vial was then added 0.400 mL of acetonitrile and 0.100 mL of a solution of triphenylphosphine (TPP, 40 mM) in acetonitrile, the vials re-capped, and the resulting solution mixed and incubated at ca. 25° C. for 30 min in the absence of light. To each vial was then added 0.100 mL of 10 mM N,N-diethyl-m-toluamide (DEET; HPLC external standard) and the resulting solution analyzed by HPLC as described below.
Supelco Discovery C8 column (10-cm×4.0-mm, 5 μm) (cat. #569422-U) w/precolumn Supelco Supelguard Discovery C8 (Sigma-Aldrich; cat #59590-U); 10 microliter injection volume; gradient method with CH3CN (Sigma-Aldrich; #270717) and deionized H2O at 1.0 mL/min and ambient temperature: […]
An extract of E. coli UM2/pSW186 transformant (20 mg total protein/mL extract, prepared as described in Example 21) was employed in 1.0 mL perhydrolysis reactions (run as described in Example 21) containing triacetin (40 mM or 100 mM), hydrogen peroxide (40 mM or 100 mM) and extract total protein (0.1 mg/mL or 1.0 mg/mL) in phosphate buffer (Pi, 100 mM, 200 mM or 300 mM) at pH 6.5 or 7.5 at 25° C. each reaction (Table 11).
(§1) Separate 1.0 mL reactions containing triacetin (250 mM), hydrogen peroxide (1.0 M) and 50 μg of extract total protein in 50 mM phosphate buffer (pH 6.5) were run at 25° C. with each transformant extract. […] The concentration of peracetic acid in the reaction mixtures (Table 12) was determined according to the method of Karst et al. as described in Example 2.
as §1, with “1-mL” for “1.0 mL”, “protein from a cell extract (prepared as described above)” for “protein”, “C.” for “C. with each transformant extract.”, “13)” for “12)”, “al.” for “al. as”, “2. […]” for “2.”

Molecule	PAA (ppm); 5 min	PAA (ppm); 30 min
B1	10 ppm	0 ppm
B2	125 ppm	370 ppm
